Laboratory results from PMC11277083, “A Natural Bioactive Peptide from Pinctada fucata Pearls Can Be Used as a Potential Inhibitor of the Interaction between SARS-CoV-2 and ACE2 against COVID-19” (International Journal of Molecular Sciences, 2024).

Biological target: recombinant ACE2 protein (coated plate of the RayBio COVID-19 Spike ACE2 binding assay kit II) (UniProt P0DTC2)
Assay: ELISA; […] ([…], in PBS), 2 h at room temperature; […]

In the case of KKCH peptide, the IC50 is reported as 413 µM.
